# Paper PMC4759581, “A DNA aptamer recognising a malaria protein biomarker can function as part of a DNA origami assembly”
# B1: aptamer-staple 87 Middle (ssDNA)
# DNA: TCATTACCCGACAATACTGGGCGGTAGAACCATAGTGACCCAGAACAACATATTTAGGC
# B2: aptamer-staple 121 Middle (ssDNA)
# DNA: TTTCATTTGGTCAATACTGGGCGGTAGAACCATAGTGACCCAGACCTGTTTATATCGCG
# B3: aptamer-staple 11 Edge (ssDNA)
# DNA: CCTAATTTACGCTAACGAGCGTCTAATCAATACTGGGCGGTAGAACCATAGTGACCCAG
# B4: aptamer-staple 111 Edge (ssDNA)
# DNA: AAACCCTCTTTTACCAGTAATAAAAGGGATTCACCAGTCACACGTTTTCTGGGCGGTAGAACCATAGTGACCCAG
# B5: aptamer-staple 211 Edge (ssDNA)
# DNA: GCTAAATCTTTTCTGTAGCTCAACATGTATTGCTGACTGGGCGGTAGAACCATAGTGACCCAG
# B6: aptamer staple 97 (ssDNA)
# DNA: CTAAAGCAAGATAGAACCCTTCTGAATCGTCTTTTTTTTTTTTTTTTTTTTTCTGGGCGGTAGAACCATAGTGACCCAGCCGTCTAC
# B7: aptamer staple 77 (ssDNA)
# DNA: TGCTCAGTCAGTCTCTGAATTTACCAGGAGGTTTTTTTTTTTTTTTTTTTTTCTGGGCGGTAGAACCATAGTGACCCAGCCGTCTAC
# B8: aptamer staple 76 (ssDNA)
# DNA: TATCACCGTACTCAGGAGGTTTAGCGGGGTTTTTTTTTTTTTTTTTTTTTTTCTGGGCGGTAGAACCATAGTGACCCAGCCGTCTAC
# B9: aptamer staple 91 (ssDNA)
# DNA: TATGTAAACCTTTTTTAATGGAAAAATTACCTTTTTTTTTTTTTTTTTTTTTCTGGGCGGTAGAACCATAGTGACCCAGCCGTCTAC
# B10: aptamer staple 93 (ssDNA)
# DNA: GAGCAAAAACTTCTGAATAATGGAAGAAGGAGTTTTTTTTTTTTTTTTTTTTCTGGGCGGTAGAACCATAGTGACCCAGCCGTCTAC
# B11: aptamer staple 95 (ssDNA)
# DNA: CGGAATTATTGAAAGGAATTGAGGTGAAAAATTTTTTTTTTTTTTTTTTTTTCTGGGCGGTAGAACCATAGTGACCCAGCCGTCTAC
# B12: aptamer staple 89 (ssDNA)
# DNA: AGAGGCATAATTTCATCTTCTGACTATAACTATTTTTTTTTTTTTTTTTTTTCTGGGCGGTAGAACCATAGTGACCCAGCCGTCTAC
# B13: aptamer staple 81 (ssDNA)
# DNA: CCGGAAACACACCACGGAATAAGTAAGACTCCTTTTTTTTTTTTTTTTTTTTCTGGGCGGTAGAACCATAGTGACCCAGCCGTCTAC
# B14: aptamer staple 79 (ssDNA)
# DNA: TGAGGCAGGCGTCAGACTGTAGCGTAGCAAGGTTTTTTTTTTTTTTTTTTTTCTGGGCGGTAGAACCATAGTGACCCAGCCGTCTAC
# B15: aptamer staple 83 (ssDNA)
# DNA: TTATTACGGTCAGAGGGTAATTGAATAGCAGCTTTTTTTTTTTTTTTTTTTTCTGGGCGGTAGAACCATAGTGACCCAGCCGTCTAC
# B16: aptamer staple 87 (ssDNA)
# DNA: TCATTACCCGACAATAAACAACATATTTAGGCTTTTTTTTTTTTTTTTTTTTCTGGGCGGTAGAACCATAGTGACCCAGCCGTCTAC
# B17: aptamer staple 85 (ssDNA)
# DNA: CTTTACAGTTAGCGAACCTCCCGACGTAGGAATTTTTTTTTTTTTTTTTTTTCTGGGCGGTAGAACCATAGTGACCCAGCCGTCTAC
# Target: T1, Plasmodium falciparum lactate dehydrogenase (PfLDH) (Plasmodium falciparum, UniProt Q71T02 1-316)
# Test: EMSA; 4 C; EMSA: 25 nM strand, 0-2500 nM PfLDH (tetramer concentration in legends; text says Kd per subunit), 25 mM Tris-HCl pH 7.5, 100 mM NaCl, 20 mM imidazole, 25 C 1 h
# Conditions: protein: recombinant; chain copies: 4; hairpin
Binder,Kd,binding result
B1,1720 ± 244 nM,
B2,,no binding
B3,596 ± 107 nM,

# Target: T1, Plasmodium falciparum lactate …
# Test: EMSA; 4 C; Fig. S15 panel assignment of 606/355 unclear; EMSA: 25 nM strand, 0-2500 nM PfLDH (tetramer concentration in legends; text says Kd per subunit), 25 mM Tris-HCl pH 7.5, 100 mM NaCl, 20 mM imidazole, 25 C 1 h
# Conditions: protein: recombinant; chain copies: 4; hairpin
row,Binder,Kd
1,B4,606 ± 164 nM
2,B5,355 ± 73 nM

# Target: T1, Plasmodium falciparum lactate …
# Test: EMSA; apparent, 1:1 fit; EMSA: 25 nM strand, 0-2500 nM PfLDH (tetramer concentration in legends; text says Kd per subunit), 25 mM Tris-HCl pH 7.5, 100 mM NaCl, 20 mM imidazole, 25 C 1 h
# Conditions: protein: recombinant; chain copies: 4; hairpin
row,Binder,Kd
1,B6,760 ± 126 nM
2,B7,726 ± 186 nM
3,B8,965 ± 265 nM
4,B9,984 ± 177 nM
5,B10,647 ± 128 nM
6,B11,846 ± 161 nM
7,B12,750 ± 95 nM
8,B13,970 ± 254 nM
9,B14,826 ± 300 nM
10,B15,1090 ± 183 nM
11,B16,878 ± 154 nM
12,B17,713 ± 161 nM
